Assay results from US20130330362A1 (HEFEI TAIRUI BIOTECHNOLOGY, published 2013).

Target: T1, Epidermal Growth Factor Receptor (EGFR) protein (UniProt P00533 25-1210, limits assumed)
T1 construct: Bought protein; also called EGFR proteins; antigen EGFR
Experiment: SPR, Biacore3000, CM5 chip, HBS-EP pH 7.4, mean of three runs
Experimental: The binding affinity between antibody and EGFR was assayed with Biacore3000 equipment. The EGFR proteins diluted with 10 mmol/L NaAc and having different pH (4.0, 4.5, 5.0 and 5.5) were formulated, and were pre-concentrated on CM5 chip to select the NaAc diluted protein with optimum pH. […] The binding affinities were computed with the software attached by Biacore3000.

B1: anti-EGFR humanized antibody L4-H3 (antibody, human IgG1, kappa, V domains shown)
VH: VKLLEQSGAEVKKPGASVKVSCKASGFSLTNYGVHWVRQAPGQRLEWMGVIWSGGNTDYNTPFTSRVTITRDTSATTAYMGLSSLRPEDTAVYYCARALTYYDYEFAYWGQGTLVTVSS
VL: ELVMTQSPSSLSASVGDRVNIACRASQSIGTNIHWYQQKPGKAPRLLIKYASESISGVPSRFSGSGSGTDFTLTISSLQPEDFAIYYCQQNNNWPTTFGGGTKVEIKR
notes: also called antibody of the present invention; the antibody
Kd: 2.75 nM
